Patent US20210355220A1 (TIKCRO TECHNOLOGIES, published 2021)

Columns and labels:
[1] = biological target: T1, hICOS on HEK293 cells (human, UniProt Q9Y6W8 21-199); assay: flow cytometry on transfected HEK293 cells
T1 construct: whole, on cells
T1 sequence (looked up): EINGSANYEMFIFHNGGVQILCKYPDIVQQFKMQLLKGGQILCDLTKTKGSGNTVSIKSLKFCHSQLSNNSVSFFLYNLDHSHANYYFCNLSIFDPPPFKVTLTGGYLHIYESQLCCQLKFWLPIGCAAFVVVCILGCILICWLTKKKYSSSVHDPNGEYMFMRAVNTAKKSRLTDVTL
Experimental: (§1) HEK293 cells were transfected with expression vectors of the following immune-related proteins: hBTLA, hICOS, hCD28, hPDL1, hPD1, hPDL2, and hCTLA-4. Over-expression of the proteins was verified using commercial antibodies against each target. […] Antibody binding to cells was then detected using flow cytometry. Cells that were incubated only with the secondary antibody were used as a background control. […] Note that “+” indicates binding above the background level and “-” indicate no binding as compared to the background level.

[2] = biological target: T2, hCD28 on HEK293 cells (human, UniProt P10747 19-220); assay: flow cytometry on transfected HEK293 cells
T2 construct: whole, on cells
Experimental: as §1

[3] = biological target: T3, hPDL1 on HEK293 cells (human, UniProt Q9NZQ7 19-290); assay: flow cytometry on transfected HEK293 cells
T3 construct: whole, on cells
Experimental: as §1

[4] = biological target: T4, hPD1 on HEK293 cells (human, UniProt Q15116 25-288); assay: flow cytometry on transfected HEK293 cells
T4 construct: whole, on cells
Experimental: as §1

[5] = biological target: T5, hBTLA on HEK293 cells (human, UniProt Q7Z6A9 31-289); assay: flow cytometry on transfected HEK293 cells
T5 construct: whole, on cells
Experimental: as §1

[6] = biological target: T6, hPDL2 on HEK293 cells (human, UniProt Q9BQ51 20-273); assay: flow cytometry on transfected HEK293 cells
T6 construct: whole, on cells
T6 sequence (looked up): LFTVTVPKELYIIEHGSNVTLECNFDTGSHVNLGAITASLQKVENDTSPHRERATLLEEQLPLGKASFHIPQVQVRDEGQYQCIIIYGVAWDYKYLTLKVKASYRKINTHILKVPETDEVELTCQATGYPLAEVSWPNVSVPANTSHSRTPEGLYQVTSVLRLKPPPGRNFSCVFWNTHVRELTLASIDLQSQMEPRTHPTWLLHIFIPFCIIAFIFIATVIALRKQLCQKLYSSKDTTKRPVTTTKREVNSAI
Experimental: as §1

[7] = biological target: T7, Pig (Sus scrofa) CTLA-4 on HEK293 cells (Sus scrofa, UniProt Q9MYX7 36-223); assay: flow cytometry on HEK293 cells transiently expressing pig CTLA-4
T7 construct: whole, on cells; also called pig CTLA-4
Experimental: Macaque (Macaca fascicularis), pig (Sus scrofa) and mouse (Mus musculus) CTLA-4 proteins were transiently expressed on the surface of HEK293 cells. […] Binding was measured using FACS and analyzed.

T7 sequence (Q9MYX7 36-223): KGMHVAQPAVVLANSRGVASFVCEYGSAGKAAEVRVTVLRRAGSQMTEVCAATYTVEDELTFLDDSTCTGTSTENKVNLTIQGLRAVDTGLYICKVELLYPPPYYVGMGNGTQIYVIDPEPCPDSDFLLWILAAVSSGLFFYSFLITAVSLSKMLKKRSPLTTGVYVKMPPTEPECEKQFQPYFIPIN
T3 sequence (Q9NZQ7 19-290): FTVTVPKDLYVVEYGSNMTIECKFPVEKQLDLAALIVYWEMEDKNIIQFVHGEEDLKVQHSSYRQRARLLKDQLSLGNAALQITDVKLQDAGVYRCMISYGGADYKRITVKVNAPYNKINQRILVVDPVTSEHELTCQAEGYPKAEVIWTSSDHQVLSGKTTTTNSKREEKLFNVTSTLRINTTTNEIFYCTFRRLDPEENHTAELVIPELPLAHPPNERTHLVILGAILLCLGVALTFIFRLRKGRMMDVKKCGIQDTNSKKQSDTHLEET
T4 sequence (Q15116 25-288): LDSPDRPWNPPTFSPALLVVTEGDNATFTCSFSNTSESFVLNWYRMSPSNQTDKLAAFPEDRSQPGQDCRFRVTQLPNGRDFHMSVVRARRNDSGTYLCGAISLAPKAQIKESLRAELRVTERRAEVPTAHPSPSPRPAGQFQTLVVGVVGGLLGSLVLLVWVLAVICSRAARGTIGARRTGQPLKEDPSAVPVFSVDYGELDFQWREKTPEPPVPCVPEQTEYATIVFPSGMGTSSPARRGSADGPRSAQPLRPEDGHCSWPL

MFI [1]: 67 MFI | MFI [2]: 67 MFI | MFI [3]: 70 MFI | MFI [4]: 77 MFI | MFI [5]: 67 MFI | MFI [6]: 73 MFI | EC50 [7]: 671 nM
B1: Ipilimumab (antibody, V domains shown)
VH: QVQLVESGGGVVQPGRSLRLSCAASGFTFSSYTMHWVRQAPGKGLEWVTFISYDGNNKYYADSVKGRFTISRDNSKNTLYLQMNSLRAEDTAIYYCARTGWLGPFDYWGQGTLVTVSS
VL: not shown
